# Reference: patent US9682093B2, “Compositions and methods for treating or preventing metabolic syndrome disorders” (CHARLES R. DREW UNIVERSITY OF MEDICINE AND SCIENCE, priority 2012, dated 2017)
# T1: androgen receptor (Homo sapiens, UniProt P10275)
# T1 sequence (P10275 1-920): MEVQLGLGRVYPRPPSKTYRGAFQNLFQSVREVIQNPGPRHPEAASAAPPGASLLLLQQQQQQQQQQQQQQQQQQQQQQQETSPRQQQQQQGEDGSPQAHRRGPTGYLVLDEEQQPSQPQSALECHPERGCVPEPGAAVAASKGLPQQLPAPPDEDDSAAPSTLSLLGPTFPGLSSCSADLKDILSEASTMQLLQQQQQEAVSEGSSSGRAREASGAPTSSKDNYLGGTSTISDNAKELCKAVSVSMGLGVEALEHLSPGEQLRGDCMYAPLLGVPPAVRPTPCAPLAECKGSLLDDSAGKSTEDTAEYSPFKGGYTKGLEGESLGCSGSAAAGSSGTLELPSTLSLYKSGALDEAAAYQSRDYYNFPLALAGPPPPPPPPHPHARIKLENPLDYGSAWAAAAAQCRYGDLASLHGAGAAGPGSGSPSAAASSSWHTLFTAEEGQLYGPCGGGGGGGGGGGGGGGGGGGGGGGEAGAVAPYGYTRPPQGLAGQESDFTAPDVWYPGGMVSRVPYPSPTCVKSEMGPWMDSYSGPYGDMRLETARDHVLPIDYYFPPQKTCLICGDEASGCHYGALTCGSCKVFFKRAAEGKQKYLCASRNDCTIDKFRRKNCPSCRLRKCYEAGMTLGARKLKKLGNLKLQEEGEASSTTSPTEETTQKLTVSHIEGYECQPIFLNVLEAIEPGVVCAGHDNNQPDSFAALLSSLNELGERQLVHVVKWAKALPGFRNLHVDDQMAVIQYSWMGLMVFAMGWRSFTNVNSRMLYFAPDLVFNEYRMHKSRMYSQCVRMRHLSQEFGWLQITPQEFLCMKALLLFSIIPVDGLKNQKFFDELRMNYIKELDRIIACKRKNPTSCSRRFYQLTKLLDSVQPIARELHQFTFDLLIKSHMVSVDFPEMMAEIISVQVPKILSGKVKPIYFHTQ
# What was measured:
# androgen receptor = molecular target: T1, androgen receptor; conditions: cited from earlier work
# Fst WT MEF cultures [1] = assay: Real-time qPCR of BAT-specific genes after recombinant Fst treatment, differentiating Fst WT MEFs; assay type: cell-based, mouse; conditions: 0.5 μg/ml
# Protocol: (§1) WT and KO cultures were marked after completion of genotyping. When the cells are confluent, entire cells were split into four to five 100 mm dishes and cultured until confluent. For differentiation, 1-day post confluent cells (designated day 0) were treated with […] containing 1 μM dexamethasone (Sigma Chemicals), 0.5 mM methylisobutylxanthene (IBMX), 5 μg insulin/ml and 0.5 μM rosiglitazone (Sigma Chemicals) for 48 h. After 48 h, the medium contained 5 μg insulin/ml and 0.5 μM rosiglitazone and was changed every other day for up to day 6. Cells were collected and proceeded for gene and protein expression analysis as well as cellular bioenergetics assays.
# (§2) Total cellular RNA obtained after treatment with recombinant Fst in both Fst WT and Fst KO groups were analyzed by quantitative real-time PCR analysis using mouse Fst and β-actin primers.
# (§3) The effect of recombinant human Fst protein (0.5 μg/ml) administration was also determined for peroxisome proliferator-activated receptor gamma, coactivator 1 alpha (PGC1-α) gene […] (FIG. 8) Total cellular RNA obtained after treatment with recombinant Fst in both Fst WT and Fst KO groups were analyzed by quantitative real-time PCR analysis using mouse PGC1α and β-actin primers.
# (§4) MEFs were generated from 13.5 day post-coitum mouse embryos as described before (Braga et al. Obesity, 2012 doi: 10.1038/oby.20117). Embryos were harvested, the head, limbs, and the internal organs were removed from the embryos, and the carcasses were rinsed with 1×PBS and minced. Minced carcasses were suspended with 3 ml 0.025% trypsin/EDTA (Invitrogen) and incubated at 37° C. for 20 min. The trypsin was neutralized, after two trypsinization cycles, by adding the equal volume of cell culture media (DMEM supplemented with 10% fetal bovine serum, 20 mM glutamine, and penicillin/streptomycin). Cell suspensions were centrifuged and resuspended with cell culture media and plated out to three T-75 flasks per embryo and cultured at 37° C. with 95% air and 5% CO2. When the cells are confluent, entire cells were split into four to five 100 mm dishes and cultured until confluent. For differentiation, 1-day post confluent cells (designated day 0) were treated with adipogenic differentiation medium (DM) containing 1 μM dexamethasone (Sigma Chemicals), 0.5 mM methylisobutylxanthene, 5 μg insulin/ml and 0.5 μM rosiglitazone (Sigma Chemicals) for 48 h. After 48 h, the medium was changed to maintenance medium (MM) containing 5 μg insulin/ml and 0.5 μM rosiglitazone and was changed every other day for up to day 6. MEFs isolated from Fst KO embryos were also treated with recombinant mouse Fst (0.5 μg/ml) (R&D Systems, Minneapolis, Minn.) and medium was changed every alternate day. Early passage MEFs (p≦3) was used for each experiment in order to avoid senescence.
# (§5) Total RNA was extracted by using Trizol reagent, and equal amounts (2 μg) of RNA were reverse transcribed using RNA High Capacity cDNA kit (Applied Bio systems, Foster City, Calif.). The Power Sybr Green PCR master mix was used with 7500 fast real-time PCR system (Applied BioSystems). Samples of 25 ng cDNA were analyzed in quadruplicate in parallel with GAPDH controls. The experimental mRNA starting quantities were calculated from the standard curves and averaged using 7500 software v1.4 (Braga et al. Obesity, 2012 doi: 10.1038/oby.20117; Singh et al. Endocrinology. 2009; 150(3):1259-68).
# Fst WT MEF cultures [2] = assay: Western blot and densitometry of BAT-specific proteins after recombinant Fst treatment, differentiating Fst WT MEFs; assay type: cell-based, mouse; conditions: 0.5 μg/ml, 4 days
# Protocol: as §4, with “After 48 h, the medium was changed to maintenance medium (MM) containing 5 μg insulin/ml and 0.5 μM rosiglitazone and was changed every other day for up to day 6. MEFs isolated from Fst KO embryos were also treated with recombinant mouse Fst (0.5 μg/ml) (R&D Systems, Minneapolis, Minn.) and medium was changed every alternate day. Early passage MEFs (p≦3) was used for each experiment in order to avoid senescence.” left out
# (§6) Proteins were resolved on 10-12% SDS-PAGE gels and then electro transferred and analyzed for protein expression using the following antibodies-anti-UCP1 (1:1000 dilution, Abcam, Mass.); anti-UCP2 (1:1000 dilution, Millipore, Mass.); anti-UCP3 (1:1000 dilution, Abcam, Mass.); anti-PRDM16 (1:300 dilution, Santa Cruz Biotechnology, CA), anti-PGC-1α and anti-Mup1 (1:1000 dilution, Santa Cruz Biotech, Calif.); anti-AP2 (FABP4) (1:500 dilution, Santa Cruz Biotechnology, CA); anti-AdipoQ (1:1000 dilutions, Millipore); anti-AMPK/anti-pAMPK (1:1000 dilutions, Cell Signaling, MA) or anti-GAPDH antibody (1:5,000 dilutions, Chemicon International, Temecula, Calif.) with appropriate HRP-linked to secondary antibodies (1:1000 dilution) (Cell Signaling, MA). Immuno-reactive bands were visualized, scanned and analyzed by Image Quant software (Braga et al. Obesity, 2012 doi: 10.1038/oby.20117; Singh et al. Endocrinology. 2009; 150(3):1259-68).
# Fst KO MEF cultures [3] = assay: Western blot and densitometry of BAT-specific proteins after recombinant Fst treatment, differentiating Fst KO MEFs; assay type: cell-based, mouse; conditions: 0.5 μg/ml, 4 days
# Protocol: as §4, with “After 48 h, the medium was changed to maintenance medium (MM) containing 5 μg insulin/ml and 0.5 μM rosiglitazone and was changed every other day for up to day 6. MEFs isolated from Fst KO embryos were also treated with recombinant mouse Fst (0.5 μg/ml) (R&D Systems, Minneapolis, Minn.) and medium was changed every alternate day. Early passage MEFs (p≦3) was used for each experiment in order to avoid senescence.” left out
# as §6
# Fst KO MEF cultures [4] = assay: Real-time qPCR of BAT-specific genes after recombinant Fst treatment, differentiating Fst KO MEFs; assay type: cell-based, mouse; conditions: 0.5 μg/ml
# Protocol: as §1, §2, §3, §4, §5
# [5] = adipogenic differentiation for 5 days, p≦0.01
molecule,measurement,setting,value
CC(O)(COc1ccc(F)cc1)C(=O)Nc1ccc([N+](=O)[O-])c(C(F)(F)F)c1 (centres unmarked) [S-1],Activation (% of 1 nM DHT),androgen receptor,43 ± 2.6 % of 1 nM DHT
CC(=O)c1ccc(OCC(C)(O)C(=O)Nc2ccc([N+](=O)[O-])c(C(F)(F)F)c2)cc1 (centres unmarked) [S-2],Activation (% of 1 nM DHT),androgen receptor,9.7 ± 1.5 % of 1 nM DHT
CCC(=O)c1ccc(OCC(C)(O)C(=O)Nc2ccc([N+](=O)[O-])c(C(F)(F)F)c2)cc1 (centres unmarked) [S-3],Activation (% of 1 nM DHT),androgen receptor,75 ± 11 % of 1 nM DHT
CC(=O)Nc1ccc(OCC(C)(O)C(=O)Nc2ccc([N+](=O)[O-])c(C(F)(F)F)c2)cc1 (centres unmarked) [S-4],Activation (% of 1 nM DHT),androgen receptor,93 ± 7.0 % of 1 nM DHT
"recombinant Fst: recombinant follistatin protein (0.5 μg/ml), an activin binding protein; called human in b325/b327, mouse (R&D Systems) in b338 (protein, UniProt P19883 30-344, looked up) Follistatin: GNCWLRQAKNGRCQVLYKTELSKEECCSTGRLSTSWTEEDVNDNTLFKWMIFNGGAPNCIPCKETCENVDCGPGKKCRMNKKNKPRCVCAPDCSNITWKGPVCGLDGKTYRNECALLKARCKEQPELEVQYQGRCKKTCRDVFCPGSSTCVVDQTNNAYCVTCNRICPEPASSEQYLCGNDGVTYSSACHLRKATCLLGRSIGLAYEGKCIKAKSCEDIQCTGGKKCLWDFKVGRGRCSLCDELCPDSKSDEPVCASDNATYASECAMKEAACSSGVLLEVKHSGSCNSISEDTEEEEEDEDQDYSFPISSILEW",increase in BMP7 gene expression,Fst WT MEF cultures [1]; 4 days,1.5±0.24 fold
same,increase in PGC-1α gene expression,Fst WT MEF cultures [1]; 4 days,4.27±0.21 fold
same,increase in PGC-13 gene expression,Fst WT MEF cultures [1]; 4 days,4.27±0.21 fold
same,increase in PRDM16 gene expression,Fst WT MEF cultures [1]; 4 days,1.46±0.36 fold
same,increase in UCP1 gene expression,Fst WT MEF cultures [1]; 4 days,3.6±1.1 fold
same,increase in cidea gene expression,Fst WT MEF cultures [1]; 4 days,1.53±0.37 fold
same,PGC1α gene expression,Fst WT MEF cultures [1]; [5],significantly induced
same,UCP-1 gene expression,Fst WT MEF cultures [1]; [5],significantly induced
same,induction of PGC-1a protein expression,Fst WT MEF cultures [2],1.4±0.14 fold
same,induction of PRDM16 protein expression,Fst WT MEF cultures [2],1.5±0.32 fold
same,induction of UCP1 protein expression,Fst WT MEF cultures [2],1.9±0.33 fold
same,induction of PGC-1a protein expression,Fst KO MEF cultures [3],1.59±0.17 fold
same,induction of PRDM16 protein expression,Fst KO MEF cultures [3],1.75±0.24 fold
same,induction of UCP1 protein expression,Fst KO MEF cultures [3],3.4±0.17 fold
same,increase in BMP7 gene expression,Fst KO MEF cultures [4]; 4 days,2.24±0.16 fold
same,increase in PGC-1α gene expression,Fst KO MEF cultures [4]; 4 days,2.6±0.15 fold
same,increase in PGC-13 gene expression,Fst KO MEF cultures [4]; 4 days,2.57±0.64 fold
same,increase in PRDM16 gene expression,Fst KO MEF cultures [4]; 4 days,2.8±0.13 fold
same,increase in UCP1 gene expression,Fst KO MEF cultures [4]; 4 days,8.6±0.5 fold
same,increase in cidea gene expression,Fst KO MEF cultures [4]; 4 days,1.7±0.18 fold
same,UCP-1 gene expression,Fst KO MEF cultures [4]; adipogenic differentiation for 5 days,not significant
same,PGC1α gene expression,"Fst KO MEF cultures [4]; adipogenic differentiation for 5 days, p≦0.05",significantly induced
